Consider one protein from PMC5762634, “Domain swapping and SMYD1 interactions with the PWWP domain of human hepatoma-derived growth factor” (Scientific Reports, 2018).

The series concerns the molecule itself. Kind of series: SEC; Superdex-200; apo PWWP domain at higher initial concentration (proportion of dimer rises with concentration); 20 mM Tris-HCl, 5 mM EDTA, 5 mM beta-ME, pH 7.5.

B1: human HDGF PWWP domain (residues 1-100) (domain or fragment)
chain: not shown
notes: human hepatoma-derived growth factor (HDGF), N-terminal PWWP domain, the first 100 amino acids; Subcloned into the NdeI and EcoRI sites of pET28a; also called apo PWWP domain; HDGF PWWP_(1-100) domain; source: E. coli BL21-Codon Plus-RIL, purified (Ni2+-NTA, Hitrap Q, Superdex-200)
Turning to B1, the “stoichiometry N” value is 2.
